B1: Divalent-cation tolerance protein CutA, P69488 (parent)
chain: MLDEKSSNTASVVVLCTAPDEATAQDLAAKVLAEKLAACATLIPGATSLYYWEGKLEQEYEVQMILKTTVSHQQALLECLKSHHPYQTPELLVLPVTHGDTDYLSWLNASLR

Variants of: B1
Details: Escherichia coli (strain K12), structure 3X3U, whole UniProt chain shown; for ddG of mutation (higher = less stable) / denaturant midpoint (higher = more stable): pH 8, 37 °C, GdnHCl, CD, Tris-HCl, reversible: yes; for Tm / change of melting temperature, mutant - wild type (higher = more stable): pH 9, Thermal, DSC, glycine Buffer, transition: 2, reversible: no

Y86D
ddG of mutation (higher = less stable): 6.38 kcal/mol
denaturant midpoint (higher = more stable): 2.67 M
Tm: 76.8 °C
change of melting temperature, mutant - wild type (higher = more stable): -13.1 °C

S11V E61T Q73V
denaturant midpoint (higher = more stable): 4.2 M
Tm: 114 °C
change of melting temperature, mutant - wild type (higher = more stable): 23.7 °C

E59L
ddG of mutation (higher = less stable): -2.89 kcal/mol
denaturant midpoint (higher = more stable): 2.96 M
Tm: 100 °C
change of melting temperature, mutant - wild type (higher = more stable): 10.3 °C

E59K
ddG of mutation (higher = less stable): -3.92 kcal/mol
denaturant midpoint (higher = more stable): 3.01 M
Tm: 104 °C
change of melting temperature, mutant - wild type (higher = more stable): 14.3 °C

E59Q
Tm: 98.3 °C
change of melting temperature, mutant - wild type (higher = more stable): 8.4 °C

E61V
ddG of mutation (higher = less stable): -3.42 kcal/mol
denaturant midpoint (higher = more stable): 3.29 M
Tm: 103 °C
change of melting temperature, mutant - wild type (higher = more stable): 13.5 °C

E61H
Tm: 94.3 °C
change of melting temperature, mutant - wild type (higher = more stable): 4.4 °C

E61T
ddG of mutation (higher = less stable): -3.15 kcal/mol
denaturant midpoint (higher = more stable): 2.99 M
Tm: 98.6 °C
change of melting temperature, mutant - wild type (higher = more stable): 8.7 °C

G45Q
Tm: 82.1 °C
change of melting temperature, mutant - wild type (higher = more stable): -7.8 °C

Q73V
denaturant midpoint (higher = more stable): 3.4 M
Tm: 94 °C
change of melting temperature, mutant - wild type (higher = more stable): 4.1 °C

S11V E61V Q73V
denaturant midpoint (higher = more stable): 4.67 M

S11V E61T
denaturant midpoint (higher = more stable): 3.48 M
Tm: 112 °C
change of melting temperature, mutant - wild type (higher = more stable): 22.4 °C

S11V E61V
denaturant midpoint (higher = more stable): 3.8 M
Tm: 114 °C
change of melting temperature, mutant - wild type (higher = more stable): 23.6 °C

E59K E61V
ddG of mutation (higher = less stable): -5.47 kcal/mol
denaturant midpoint (higher = more stable): 3.24 M
Tm: 104 °C
change of melting temperature, mutant - wild type (higher = more stable): 14.4 °C

S11V
denaturant midpoint (higher = more stable): 3.31 M
Tm: 105 °C
change of melting temperature, mutant - wild type (higher = more stable): 15.1 °C

S11I
Tm: 103 °C
change of melting temperature, mutant - wild type (higher = more stable): 12.8 °C

S11A
Tm: 106 °C
change of melting temperature, mutant - wild type (higher = more stable): 16.5 °C

S11V E59K E61T
denaturant midpoint (higher = more stable): 3.48 M

Y60T
Tm: 91.9 °C
change of melting temperature, mutant - wild type (higher = more stable): 2 °C

Reference: FireProtDB (doi:10.1093/jb/mvq079)
